From patent US20120201794A1

Tests used:
[1] = biological target: C46 protein (membrane anchored fusion inhibitor derived from the C-terminal heptad repeat of HIV gp41 fused with a human immunoglobulin hinge region and a CD34 transmembrane domain) (HIV gp41 heptad repeat fused to human immunoglobulin hinge and CD34 transmembrane domain); test: flow cytometry, 2F5 staining of Molt4/CCR5 cells transduced with the sh5/C46 lentiviral construct (untransduced background 344.6)
[2] = biological target: C46 protein (membrane anchored fusion inhibitor derived from the C-terminal heptad repeat of HIV gp41 fused with a human immunoglobulin hinge region and a CD34 transmembrane domain) (HIV gp41 heptad repeat fused to human immunoglobulin hinge and CD34 transmembrane domain); test: flow cytometry, 2F5 staining of Molt4/CCR5 cells transduced with the C46 lentiviral construct (untransduced background 344.6)

Question: 2F5 antibody was tested. Which MFI [1] did it give?
Answer: 1170

Question: What about the MFI [2] of the same substance?
Answer: 1450
